Results as given in the supplement of paper PMC12338614.
± gives the uncertainty stated by the source.

B1: library; numbered along this chain (parent)
chain: MEVVDPQQLGMFTEGELMSVGMDTFIHRIDSTEVIYQPRRKRAKLIGKYLMGDLLGEGSYGKVKEVLDSETLCRRAVKILKKKKLRRIPNGEANVKKEIQLLRRLRHKNVIQLVDVLYNEEKQKMYMVMEYCVCGMQEMLDSVPEKRFPVCQAHGYFCQLIDGLEYLHSQGIVHKDIKPGNLLLTTGGTLKISDLGVAEALHPFAADDTCRTSQGSPAFQPPEIANGLDTFSGFKVDIWSAGVTLYNITTGLYPFEGDNIYKLFENIGKGSYAIPGDCGPPLSDLLKGMLEYEPAKRFSIRQIRQHSWFRKKHPPAEAPVPIPPSPDTKDRWRSMTVVPYLEDLHGADEDEDLFDIEDDIIYTQDFTVPGQVPEEEASHNGQRRGLPKAVCMNGTEAAQLSTKSRAEGRAPNPARKACSASSKIRRLSACKQQ

Variants of: B1
Experiment: STK11 functional score (HeLa growth suppression), rescaled enrichment; synonymous median = 1, nonsense median = 0 (normalised score)
Conditions: with HeLa; variant type: missense
In short: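 The values are functional scores: wild-type-corrected log ratios of post- versus pre-selection abundance, rescaled to synonymous and nonsense medians, merged over codons and replicate transfections, and carrying bootstrapped error. They derive from codon-randomised (POPCode), codon-optimised STK11 libraries that Bxb1 integrated at an AAVS1 landing pad in HeLa, with three transfections for each of three regions. Sequencing of tiled gDNA amplicons ran on NextSeq, at ~2 million reads per tile.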

Row | Variant | STK11 functional score
1 | Y253D | 0.768 ± 0.37
2 | I361V | 1.6 ± 0.24
3 | I361L | 1.31 ± 0.35
4 | I303D | -0.579 ± 0.078
5 | E121Q | 1.08 ± 0.45
6 | D365Y | 1.38 ± 0.14
7 | D258E | 0.739 ± 0.3
8 | D258H | 1.62 ± 0.55
9 | D258F | 0.78 ± 0.28
10 | Q220S | 1.21 ± 0.13
11 | Q220A | 1.3 ± 0.12
12 | A316R | 0.901 ± 0.098
13 | C151T | 0.991 ± 0.13
14 | C278K | 1.57 ± 0.25
15 | N380P | 1.59 ± 0.26
16 | N380G | 1.57 ± 0.31
17 | N380C | 1.57 ± 0.28
18 | N380V | 1.12 ± 0.27
19 | R383T | 1.56 ± 0.24
20 | I260V | 1.07 ± 0.18
21 | I260T | 1.33 ± 0.69
22 | V372K | 1.6 ± 0.24
23 | V372G | 1.09 ± 0.47
24 | F231N | 1.69 ± 0.13

Row | Variant | STK11 functional score
25 | P275V | 0.683 ± 0.34
26 | P275A | 0.693 ± 0.35
27 | P275Y | 0.943 ± 0.55
28 | L263R | 1.39 ± 0.24
29 | L140G | -0.0512 ± 0.082
30 | K97L | 0.76 ± 0.24
31 | S240V | 0.33 ± 0.1
32 | P222R | 0.93 ± 0.23
33 | L252F | 1.07 ± 0.39
34 | S232Y | 0.917 ± 0.16
35 | T212H | 1.59 ± 0.41
36 | T336W | 1.64 ± 0.15
37 | I322F | 1.25 ± 0.22
38 | I322G | -0.0839 ± 0.11
39 | A414E | 1.54 ± 0.14
40 | A414L | 1.16 ± 0.34
41 | A295V | 1.17 ± 0.28
42 | E65Q | 1.18 ± 0.52
43 | E65D | 1.34 ± 0.37
44 | E65V | 0.734 ± 0.15
45 | R304A | 1.49 ± 0.18
46 | D229V | 0.388 ± 0.095
47 | H107L | 0.324 ± 0.13
48 | H107M | 0.523 ± 0.27

Row | Variant | STK11 functional score
49 | E120C | 0.373 ± 0.24
50 | E120T | 1.43 ± 0.23
51 | K78L | 0.107 ± 0.12
52 | K78N | 0.219 ± 0.18
53 | K78I | -0.0791 ± 0.14
54 | A417M | 1.47 ± 0.12
55 | S401F | 1.49 ± 0.24
56 | S401E | 1.24 ± 0.46
57 | S401W | 0.786 ± 0.71
58 | S401V | 1.41 ± 0.24
59 | D30R | 1.69 ± 0.13
60 | A225I | 1.42 ± 0.13
61 | E376S | 1.57 ± 0.24
62 | E376M | 0.943 ± 0.45
63 | A398C | 1.35 ± 0.39
64 | K175I | 0.589 ± 0.096
65 | K175F | 0.988 ± 0.35
66 | I424K | 1.22 ± 0.33
67 | T367Y | 1.54 ± 0.2
68 | D208A | 1.19 ± 0.23
69 | D208I | 1.31 ± 0.36
70 | P324G | 1.36 ± 0.15
71 | W239K | 0.155 ± 0.096
72 | L190D | -0.215 ± 0.095

Row | Variant | STK11 functional score
73 | M289G | -0.0773 ± 0.11
74 | M289R | -0.101 ± 0.11
75 | T402I | 1.25 ± 0.2
76 | T402C | 1.33 ± 0.4
77 | L164V | 0.774 ± 0.13
78 | L164R | -0.302 ± 0.12
79 | V114W | 0.805 ± 0.081
80 | L341E | 1.55 ± 0.15
81 | L341A | 1.51 ± 0.15
82 | R405K | 1.33 ± 0.42
83 | H174C | 0.891 ± 0.41
84 | I177R | -0.0129 ± 0.087
85 | V337D | 1.2 ± 0.39
86 | V337T | 1.61 ± 0.15
87 | V66E | 0.0829 ± 0.36
88 | V66M | -0.0689 ± 0.32
89 | M11T | 1.23 ± 0.65
90 | M11V | 1.55 ± 0.48
91 | G381Y | 1.37 ± 0.36
92 | G381V | 0.684 ± 0.15
93 | P323M | 1.55 ± 0.15
94 | G370V | 0.706 ± 0.17
95 | G268H | 1.15 ± 0.61
96 | D176P | 0.0199 ± 0.077

Row | Variant | STK11 functional score
97 | D176I | -0.156 ± 0.11
98 | D176F | -0.058 ± 0.09
99 | Y36A | 0.73 ± 0.18
100 | R104I | 1.23 ± 0.25
101 | R104V | 0.88 ± 0.21
102 | V150K | 1.36 ± 0.28
103 | S299R | 1.53 ± 0.18
104 | N109R | 0.707 ± 0.08
105 | H345D | 1.27 ± 0.37
106 | G58M | 0.219 ± 0.094
107 | I274V | 0.7 ± 0.15
108 | I274N | 1.27 ± 0.51
109 | M22G | 1.07 ± 0.099
110 | L344T | 1.56 ± 0.17
111 | L105G | 0.712 ± 0.15
112 | L105A | 1.32 ± 0.18
113 | L105D | 0.494 ± 0.2
114 | E375N | 1.47 ± 0.16
115 | A406L | 1.57 ± 0.22
116 | E349M | 1.33 ± 0.32
117 | E349T | 1.51 ± 0.13
118 | E349Y | 0.952 ± 0.56
119 | G171W | 1.53 ± 0.11
120 | S428N | 0.872 ± 0.25

Row | Variant | STK11 functional score
121 | I172S | 0.549 ± 0.27
122 | V110S | 0.535 ± 0.12
123 | V110R | -0.0313 ± 0.081
124 | N393E | 1.48 ± 0.16
125 | N393G | 1.36 ± 0.31
126 | P369V | 1.21 ± 0.15
127 | L245H | -0.0776 ± 0.099
128 | L245G | -0.177 ± 0.094
129 | M335A | 1.51 ± 0.16
130 | M335F | 1.35 ± 0.13
131 | K41E | 1.42 ± 0.65
132 | K41R | 1.6 ± 0.33
133 | K41V | 1.36 ± 0.19
134 | D194E | -0.268 ± 0.36
135 | V133S | 1.06 ± 0.3
136 | K178V | 0.434 ± 0.32
137 | K178R | 0.681 ± 0.13
138 | P149D | 0.598 ± 0.17
139 | L184P | 0.189 ± 0.18
140 | I356T | 1.58 ± 0.43
141 | K64N | 0.93 ± 0.15
142 | S378P | 1.38 ± 0.24
143 | S378I | 1.26 ± 0.39
144 | S378N | 1.56 ± 0.47

Row | Variant | STK11 functional score
145 | S378M | 1.11 ± 0.13
146 | S378Y | 1.35 ± 0.35
147 | V243H | -0.00535 ± 0.12
148 | D350T | 1.47 ± 0.14
149 | T24R | 0.782 ± 0.14
150 | G56L | 0.359 ± 0.094
151 | G56F | 0.171 ± 0.08
152 | G56R | 0.136 ± 0.092
153 | G56Y | -0.102 ± 0.094
154 | K388V | 1.3 ± 0.2
155 | E165S | 1.39 ± 0.38
156 | A410E | 1.34 ± 0.14
157 | E342N | 1.4 ± 0.14
158 | E342D | 0.774 ± 0.55
159 | E342R | 1.54 ± 0.21
160 | E342S | 1.39 ± 0.25
161 | S193N | 1.61 ± 0.2
162 | S193F | -0.0251 ± 0.091
163 | S193L | 0.696 ± 0.12
164 | Q7P | 0.819 ± 0.22
165 | Q7R | 1.38 ± 0.13
166 | Q7Y | 1.22 ± 0.087
167 | Q7V | 1.37 ± 0.27
